Results as given in article PMC10397247.
Blank lines part the entries; values can stand above or below the binder they belong to.

How the values were obtained:
Assay in all cases: two-hybrid library CCNG1;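 further: natural log of median RNA to DNA barcode read ratio; higher means stronger binding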
4H235-bA = biological target: T1, 4H235-bA
T1 chain: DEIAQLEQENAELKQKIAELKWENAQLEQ

4H2444-bA = biological target: T2, 4H2444-bA
T2 chain: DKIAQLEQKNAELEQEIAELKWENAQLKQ

4H2518-bA = biological target: T3, 4H2518-bA
T3 chain: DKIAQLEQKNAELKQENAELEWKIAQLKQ

4H2585-bA = biological target: T4, 4H2585-bA
T4 chain: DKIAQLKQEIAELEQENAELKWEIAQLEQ

4H264-bA = biological target: T5, 4H264-bA
T5 chain: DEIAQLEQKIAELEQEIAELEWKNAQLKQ

4H2760-bA = biological target: T6, 4H2760-bA
T6 chain: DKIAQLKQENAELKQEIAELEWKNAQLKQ

4H2859-bA = biological target: T7, 4H2859-bA
T7 chain: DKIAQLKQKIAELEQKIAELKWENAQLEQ

4H2931-bA = biological target: T8, 4H2931-bA
T8 chain: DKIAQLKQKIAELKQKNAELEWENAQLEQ

4H3041-bA = biological target: T9, 4H3041-bA
T9 chain: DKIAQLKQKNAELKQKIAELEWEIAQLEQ

4H3297-bA = biological target: T10, 4H3297-bA
T10 chain: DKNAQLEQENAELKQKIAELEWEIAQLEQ

4H331-bA = biological target: T11, 4H331-bA
T11 chain: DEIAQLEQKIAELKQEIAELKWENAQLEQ

4H3364-bA = biological target: T12, 4H3364-bA
T12 chain: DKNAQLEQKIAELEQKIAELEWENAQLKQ

4H3381-bA = biological target: T13, 4H3381-bA
T13 chain: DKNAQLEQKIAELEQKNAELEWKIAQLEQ

4H349-bA = biological target: T14, 4H349-bA
T14 chain: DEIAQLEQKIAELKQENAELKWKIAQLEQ

4H454-bA = biological target: T15, 4H454-bA
T15 chain: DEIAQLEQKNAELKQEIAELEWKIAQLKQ

4H56-bA = biological target: T16, 4H56-bA
T16 chain: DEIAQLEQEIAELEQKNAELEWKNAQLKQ

4H575-bH = biological target: T17, 4H575-bH
T17 chain: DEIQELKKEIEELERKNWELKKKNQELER

4H730-bA = biological target: T18, 4H730-bA
T18 chain: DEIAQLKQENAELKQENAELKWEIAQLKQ

4H796-bA = biological target: T19, 4H796-bA
T19 chain: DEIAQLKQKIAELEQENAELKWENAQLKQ

4H932-bA = biological target: T20, 4H932-bA
T20 chain: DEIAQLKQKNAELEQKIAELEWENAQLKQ

4H949-bA = biological target: T21, 4H949-bA
T21 chain: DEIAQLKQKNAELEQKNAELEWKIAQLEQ

4H344-bN = biological target: T22, 4H344-bN
T22 chain: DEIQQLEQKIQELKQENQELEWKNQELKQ

4H363-bN = biological target: T23, 4H363-bN
T23 chain: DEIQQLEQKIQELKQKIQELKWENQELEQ

4H3907-bN = biological target: T24, 4H3907-bN
T24 chain: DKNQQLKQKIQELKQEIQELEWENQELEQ

4H3961-bN = biological target: T25, 4H3961-bN
T25 chain: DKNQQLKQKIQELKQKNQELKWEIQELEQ

4H470-bN = biological target: T26, 4H470-bN
T26 chain: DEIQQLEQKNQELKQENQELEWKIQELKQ

P7SH = biological target: T27, P7SH
T27 chain: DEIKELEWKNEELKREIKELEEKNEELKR

P8SH = biological target: T28, P8SH
T28 chain: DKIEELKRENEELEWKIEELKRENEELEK

4H2588-bH = biological target: T29, 4H2588-bH
T29 chain: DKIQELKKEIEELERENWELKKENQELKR

4H2692-bH = biological target: T30, 4H2692-bH
T30 chain: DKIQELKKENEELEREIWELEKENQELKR

4H2717-bH = biological target: T31, 4H2717-bH
T31 chain: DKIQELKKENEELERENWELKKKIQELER

4H2839-bH = biological target: T32, 4H2839-bH
T32 chain: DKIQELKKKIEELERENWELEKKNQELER

4H2915-bH = biological target: T33, 4H2915-bH
T33 chain: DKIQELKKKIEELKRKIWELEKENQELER

4H3057-bH = biological target: T34, 4H3057-bH
T34 chain: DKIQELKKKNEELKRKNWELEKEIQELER

4H319-bH = biological target: T35, 4H319-bH
T35 chain: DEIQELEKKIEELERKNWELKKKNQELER

4H3277-bH = biological target: T36, 4H3277-bH
T36 chain: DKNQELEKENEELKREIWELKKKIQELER

4H338-bA = biological target: T37, 4H338-bA
T37 chain: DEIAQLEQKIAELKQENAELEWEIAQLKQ

4H40-bH = biological target: T38, 4H40-bH
T38 chain: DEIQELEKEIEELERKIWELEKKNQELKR

4H477-bH = biological target: T39, 4H477-bH
T39 chain: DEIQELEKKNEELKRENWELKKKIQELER

4H492-bH = biological target: T40, 4H492-bH
T40 chain: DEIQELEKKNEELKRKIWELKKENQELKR

4H741-bH = biological target: T41, 4H741-bH
T41 chain: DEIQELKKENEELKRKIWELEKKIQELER

B1: 4H235-bA (peptide)
chain: DEIAQLEQENAELKQKIAELKWENAQLEQ
- interaction score (4H235-bA): 0.082
- interaction score (4H2444-bA): -0.488
- interaction score (4H2518-bA): -0.69
- interaction score (4H2585-bA): -0.367
- interaction score (4H264-bA): -0.636
- interaction score (4H2760-bA): 1.96
- interaction score (4H2859-bA): -0.319
- interaction score (4H2931-bA): -0.643
- interaction score (4H3041-bA): 0.563
- interaction score (4H3297-bA): -0.354
- interaction score (4H331-bA): -2
- interaction score (4H3364-bA): -0.845
- interaction score (4H3381-bA): -0.985
- interaction score (4H349-bA): -0.682
- interaction score (4H454-bA): 0.0882
- interaction score (4H56-bA): -1.05
- interaction score (4H575-bH): -3.02
- interaction score (4H730-bA): -0.952
- interaction score (4H796-bA): -0.862
- interaction score (4H932-bA): -0.974
- interaction score (4H949-bA): -0.885

B2: 4H344-bN (peptide)
chain: DEIQQLEQKIQELKQENQELEWKNQELKQ
- interaction score (4H344-bN): 0.297
- interaction score (4H363-bN): -2.06
- interaction score (4H3907-bN): -2.07
- interaction score (4H3961-bN): 0.044
- interaction score (4H470-bN): 0.132

Further lines, results first:

- interaction score (P7SH): -0.227
- interaction score (P8SH): 2.08
B3: P7SH (peptide)
chain: DEIKELEWKNEELKREIKELEEKNEELKR

- interaction score (4H2588-bH): 0.98
- interaction score (4H2692-bH): 0.605
- interaction score (4H2717-bH): -0.116
- interaction score (4H2839-bH): 1.07
- interaction score (4H2915-bH): 1.07
- interaction score (4H3057-bH): 0.192
- interaction score (4H319-bH): 0.617
- interaction score (4H3277-bH): -0.69
- interaction score (4H338-bA): 0.393
- interaction score (4H40-bH): -0.884
- interaction score (4H477-bH): -0.292
- interaction score (4H492-bH): -1.5
- interaction score (4H741-bH): 0.417
- interaction score (P7SH): -0.241
B4: 4H2588-bH (peptide)
chain: DKIQELKKEIEELERENWELKKENQELKR
